Data as given in patent publication US20100196390A1 (RINAT NEUROSCIENCE, published 2010).
Numbering of substitutions follows the chain as printed.

B1: 4B12-23 (Fab, V domains shown)
VH: QVQLVQSGAEVKKPGASVKVSCKASGYTFTNYDIIWVRQAPGQGLEWMGYINPYNGRREYNEKFKGRVTMTRDTSTSTVYMELSSLRSEDTAVYYCARLLKYRAFRYYAIDYWGQGTTVTVSS
VL: DIQMTQSPSSLSASVGDRVTITCRASEPVYSNVAWYQQKPGKAPKLLIYAASNLQSGVPSRFSGSGSGTDYTFTISSLQPEDIATYYCQHFWGSPFTFGQGTKLEIK
notes: Fab
B2: 4B12-27 (Fab, V domains shown)
VH: B1 VH with Y102A, A104R
VL: B1 VL
notes: Fab
B3: 4B12-24 (Fab, V domains shown)
VH: B1 VH with A104R, R106S
VL: B1 VL
notes: Fab
B4: 5-B8 (Fab, V domains shown)
VH: B1 VH with D33V, I35L, G56D, R57G, R58T, E59K, A104R
VL: B1 VL with P28N, V33L, Y71F, H90Q, G93Y
notes: Fab
B5: 8-D2 (Fab, V domains shown)
VH: B1 VH with D33V, I35L, G56D, R57G, R58T, E59K, A104R, R106S, I110A
VL: B1 VL with P28N, V33L, Y71F, H90N, G93Y
notes: Fab
B6: 6-B4 (Fab, V domains shown)
VH: B1 VH with D33V, I35L, G56D, R57G, R58T, E59K, A104R, R106Q
VL: B1 VL with P28N, V33L, Y71F, G93Y
notes: Fab
B7: 6-B11 (Fab, V domains shown)
VH: B1 VH with D33V, I35L, G56D, R57G, R58T, E59K, A104R, R106S
VL: B1 VL with P28N, V33L, Y71F, G93Q
notes: Fab
B8: 8-G2 (Fab, V domains shown)
VH: B1 VH with D33V, I35L, G56D, R57G, R58T, E59K, A104R, Y107F
VL: B1 VL with P28N, V33L, Y71F, W92G, G93Y, T97I
notes: Fab
B9: 5-G4 (Fab, V domains shown)
VH: B1 VH with D33V, I35L, G56D, R57G, R58T, E59K, A104R, R106S
VL: B1 VL with P28N, V33L, Y71F
notes: Fab
B10: 7-F1 (Fab, V domains shown)
VH: B1 VH with D33V, I35L, G56D, R57G, R58T, E59K, A104R
VL: B1 VL with P28N, V33L, Y71F, H90N, G93Y
notes: Fab
B11: 5-F1 (Fab, V domains shown)
VH: B1 VH with D33V, I35L, G56D, R57G, R58T, E59K, A104R, R106K
VL: B1 VL with P28N, V33L, Y71F, G93Y, T97L
notes: Fab
B12: 4B12-26 (Fab, V domains shown)
VH: B1 VH with A104R, R106A
VL: B1 VL
notes: Fab
B13: 8-H7 (Fab, V domains shown)
VH: B1 VH with D33V, I35L, G56D, R57G, R58T, E59K, A104R, R106S, Y107F
VL: B1 VL with P28N, V33L, Y71F, W92V, G93Y
notes: Fab
B14: 7-D1 (Fab, V domains shown)
VH: B1 VH with D33V, I35L, G56D, R57G, R58T, E59K, A104R, R106S, Y112V
VL: B1 VL with P28N, V33L, Y71F, G93Y, S94L
notes: Fab
B15: 5-E2 (Fab, V domains shown)
VH: B1 VH with D33V, I35L, G56D, R57G, R58T, E59K, A104R, R106K
VL: B1 VL with P28N, V33L, Y71F, G93Y
notes: Fab
B16: 5-D1 (Fab, V domains shown)
VH: B1 VH with D33V, I35L, G56D, R57G, R58T, E59K, A104R, Y112V
VL: B1 VL with P28N, V33L, Y71F, H90N, G93Y
notes: Fab
B17: 8-B2 (Fab, V domains shown)
VH: B1 VH with D33V, I35L, G56D, R57G, R58T, E59K, A104R
VL: B1 VL with P28N, V33L, Y71F, W92Y, G93Y
notes: Fab
B18: 6-H12 (Fab, V domains shown)
VH: B1 VH with D33V, I35L, G56D, R57G, R58T, E59K, A104R, R106S
VL: B1 VL with P28N, V33L, Y71F, G93H
notes: Fab
B19: 5-B2 (Fab, V domains shown)
VH: B1 VH with D33V, I35L, G56D, R57G, R58T, E59K, A104R, R106S
VL: B1 VL with P28N, V33L, Y71F, W92D, G93Y
notes: Fab
B20: 7-B8 (Fab, V domains shown)
VH: B1 VH with D33V, I35L, G56D, R57G, R58T, E59K, A104R
VL: B1 VL with P28N, V33L, Y71F, G93Y, F96C
notes: Fab
B21: 9-D9 (Fab, V domains shown)
VH: B1 VH with D33V, I35L, G56D, R57G, R58T, E59K, A104R
VL: B1 VL with P28N, V33L, Y71F, G93Y, T97A
notes: Fab
B22: 6-E10 (Fab, V domains shown)
VH: B1 VH with D33V, I35L, G56D, R57G, R58T, E59K, A104P, R106S
VL: B1 VL with P28N, V33L, Y71F, W92S, G93L
notes: Fab
B23: 7-C11 (Fab, V domains shown)
VH: B1 VH with D33V, I35L, G56D, R57G, R58T, E59K, A104R, R106S
VL: B1 VL with P28N, V33L, Y71F, W92K, G93Y
notes: Fab
B24: 7-B9 (Fab, V domains shown)
VH: B1 VH with D33V, I35L, G56D, R57G, R58T, E59K, A104R, R106S, Y112V
VL: B1 VL with P28N, V33L, Y71F, G93Y, F96W
notes: Fab
B25: 4B12-29 (Fab, V domains shown)
VH: B1 VH with A104R, F105A
VL: B1 VL
notes: Fab
B26: 6-D12 (Fab, V domains shown)
VH: B1 VH with D33V, I35L, G56D, R57G, R58T, E59K, A104R
VL: B1 VL with P28N, V33L, Y71F, G93A
notes: Fab
B27: 9-D6 (Fab, V domains shown)
VH: B1 VH with D33V, I35L, G56D, R57G, R58T, E59K, A104R, R106S, Y112V
VL: B1 VL with P28N, V33L, Y71F, W92S, G93Y
notes: Fab
B28: 4B12-28 (Fab, V domains shown)
VH: B1 VH with A104R, F105E
VL: B1 VL
notes: Fab
B29: 6-A6 (Fab, V domains shown)
VH: B1 VH with D33V, I35L, G56D, R57G, R58T, E59K, A104R, R106K
VL: B1 VL with P28N, V33L, Y71F, G93Y, T97V
notes: Fab
B30: 8-C8 (Fab, V domains shown)
VH: B1 VH with D33V, I35L, G56D, R57G, R58T, E59K, A104R
VL: B1 VL with P28N, V33L, Y71F, G93Y, T97G
notes: Fab
B31: 7-B1 (Fab, V domains shown)
VH: B1 VH with D33V, I35L, G56D, R57G, R58T, E59K, A104R
VL: B1 VL with P28N, V33L, Y71F, G93Y, T97K
notes: Fab
B32: 4B12-25 (Fab, V domains shown)
VH: B1 VH with K101R, A104R
VL: B1 VL
notes: Fab
B33: 6-C10 (Fab, V domains shown)
VH: B1 VH with D33V, I35L, G56D, R57G, R58T, E59K, A104R
VL: B1 VL with P28N, V33L, Y71F, G93Y, P95W
notes: Fab
B34: 9-D11 (Fab, V domains shown)
VH: B1 VH with D33V, I35L, G56D, R57G, R58T, E59K, A104R, R106K
VL: B1 VL with P28N, V33L, Y71F, G93M
notes: Fab
B35: 5-B1 (Fab, V domains shown)
VH: B1 VH with D33V, I35L, G56D, R57G, R58T, E59K, A104R, R106T, D111H
VL: B1 VL with P28N, V33L, Y71F, G93Y
notes: Fab

What follows are binders tested against TrkB (Homo sapiens (Human), UniProt Q16620 32-430) (assay: koff of Fab at 25 C; T1/2=Log2/koff).
Chain of TrkB (Q16620 32-430 limits assumed): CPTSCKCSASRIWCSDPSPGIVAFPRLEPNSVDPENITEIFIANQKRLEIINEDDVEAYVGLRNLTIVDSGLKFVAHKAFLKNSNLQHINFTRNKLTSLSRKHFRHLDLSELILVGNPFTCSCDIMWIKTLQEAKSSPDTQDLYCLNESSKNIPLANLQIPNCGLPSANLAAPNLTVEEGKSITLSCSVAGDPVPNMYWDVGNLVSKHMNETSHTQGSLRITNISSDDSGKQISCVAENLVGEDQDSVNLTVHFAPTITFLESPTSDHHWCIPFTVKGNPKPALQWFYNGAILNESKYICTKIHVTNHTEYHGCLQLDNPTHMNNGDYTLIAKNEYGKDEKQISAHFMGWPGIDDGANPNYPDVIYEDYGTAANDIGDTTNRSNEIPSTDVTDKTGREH
Outline: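 Monovalent Fab fragments were tested at 25° C by surface plasmon resonance on a Biacore instrument, against TrkB extracellular-domain monomer amine-coupled to the chip at low capacity. Fabs were injected low to high as a 3-fold serial dilution from 100 nM for 84 sec, with a 10 minute dissociation after the top sample. The dissociation half-life was calculated from koff, which was fitted to a Langmuir binding model in BIAevaluation. The formula used was T1/2 = Log 2/koff.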

| Binder | T1/2 [min] |
| --- | --- |
| B1 | 10.8 |
| B2 | 0.5 |
| B3 | 6 |
| B4 | 1.82 |
| B5 | 1.81 |
| B6 | 1.55 |
| B7 | 1.44 |
| B8 | 1.88 |
| B9 | 1.35 |
| B10 | 0.54 |
| B11 | 1.6 |
| B12 | 8.1 |
| B13 | 1.18 |
| B14 | 0.7 |
| B15 | 1.66 |
| B16 | 1.61 |
| B17 | 1.46 |
| B18 | 1.54 |

| Binder | T1/2 [min] |
| --- | --- |
| B19 | 1.55 |
| B20 | 1.18 |
| B21 | 1.54 |
| B22 | 1.3 |
| B23 | 1.07 |
| B24 | 1.79 |
| B25 | 5.6 |
| B26 | 1.7 |
| B27 | 1.45 |
| B28 | 5.4 |
| B29 | 1.59 |
| B30 | 1.78 |
| B31 | 0.81 |
| B32 | 1.1 |
| B33 | 1.55 |
| B34 | 1.55 |
| B35 | 1.36 |
